Data set [1] concerns the molecule itself. The data set can be described thus: AUC; sedimentation velocity, 0.125, 1 and 3 mg/ml HspB2 in TNE buffer (50 mM Tris HCl pH 7.4, 1 mM EDTA, 100 mM NaCl), 40,000 rpm, 20°C, interference optics, SEDFIT.
Data set [2] deals with the molecule itself. The data set can be described thus: FRET or BRET; subunit exchange: AIAS- and LYI-labelled HspB2 mixed in equimolar ratios in 20 mM HEPES pH 7.4, 100 mM NaCl, at 37°C or 20°C; excitation 332 nm. For orientation: BRET reads energy transfer from a luciferase to a nearby fluorophore.

B1: human HspB2 / Myotonic Dystrophy Protein Kinase Binding Protein (MKBP) (natural protein, UniProt Q16082 1-182, looked up)
chain: MSGRSVPHAHPATAEYEFANPSRLGEQRFGEGLLPEEILTPTLYHGYYVRPRAAPAGEGSRAGASELRLSEGKFQAFLDVSHFTPDEVTVRTVDNLLEVSARHPQRLDRHGFVSREFCRTYVLPADVDPWRVRAALSHDGILNLEAPRGGRHLDTEVNEVYISLLPAPPDPEEEEEAAIVEP
notes: HspB2 (MKBP), human; The reverse primer carries the stop codon (TCA), so the C-terminal His tag of pET21a is probably not translated; also called MKBP/HspB2; source: E. coli BL21 DE3, purified (20% ammonium sulfate precipitation, Phenyl Sepharose)
B1: the binding result in data set [1] was “binds”.

B2: human HspB2 labelled at its sole cysteine (Cys118) with AIAS or LYI (natural protein, UniProt Q16082 1-182, looked up)
chain: MSGRSVPHAHPATAEYEFANPSRLGEQRFGEGLLPEEILTPTLYHGYYVRPRAAPAGEGSRAGASELRLSEGKFQAFLDVSHFTPDEVTVRTVDNLLEVSARHPQRLDRHGFVSREFCRTYVLPADVDPWRVRAALSHDGILNLEAPRGGRHLDTEVNEVYISLLPAPPDPEEEEEAAIVEP
modifications: cysteine at 118 covalently labelled with AIAS (4-acetamido-4'-((iodoacetyl)amino)stilbene-2,2'-disulfonic acid; donor copy) or with Lucifer Yellow Iodoacetamide (LYI; acceptor copy)
notes: HspB2 (MKBP), human; the same recombinant protein as m1, labelled at the sole cysteine residue (118th position); Two differently labelled copies of the same protein (AIAS donor, LYI acceptor) mixed in equimolar ratio for FRET; also called AIAS-labeled HspB2; LYI-labeled HspB2; source: E. coli BL21 DE3, purified, then labelled with AIAS or LYI and desalted (PD10)
For B2, the binding result in data set [2] was “binds”.
